The nanobody polyreactivity screen of Harvey et al. (2022)

Experiment: yeast display, Sf9 membrane polyspecificity reagent, FACS + sequencing; frameworks hold sequencing errors
Method in brief: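 Galactose induction of a Saccharomyces cerevisiae BJ5465 synthetic nanobody display library ran 36–48 hours. The cells were then stained for 1 hour at 4 °C with 10% biotinylated, detergent-solubilized Sf9 membrane reagent, pulled down on streptavidin microbeads and FACS-sorted into low and high (top ~1%) gates on expression and reagent-binding fluorescence. Labels for polyreactivity follow the gate of origin.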

QVQLVESGGGLVQAGGSLRLSCAASGSTFPSYTMGWYRQAPGKERELVAAITLSGGSTYYADSVNGRFTISRDNAKYTVYLQMNSLKPSDTAVYYCAAYSQRGYYWGQGTQVTVSS
polyreactivity (PSR sort gate): low polyreactivity

QVQLLESGGGLVQAGGSLRLSCAASGSTFGVYAMGWYRQAPGKEREFVAAINARGTRTRYADSVKGRFTISRDNAKNTVYLQMNSLKPDDTAVYYCAAVWYGYYSIDTYGYWGQGTQVTVSS
polyreactivity (PSR sort gate): high polyreactivity

QVQLVESGGGLVQAGGSLRLSCAASGSTSRTYAMGWYRQAPAKERELVAASSSSGGRTYYADSVKGRFTISRDNAKNTVYLQMNSMKPEDTAVYYCNARTYSYRGYNYWGQGTQVTVSS
polyreactivity (PSR sort gate): high polyreactivity

QVQLVESGGGLVQAGGSLRLSCAASGSIFGYNAMGWYRQAPGKEREFVAAINTSGGSTYYADSVKGSFTISRDNAKNTVYLQMYSLKPEATAVYYCAARAYSWISARYYWGLGTQVTVSS
polyreactivity (PSR sort gate): high polyreactivity

QVQLVESGGGLVQAGGSLRLSCAASGRIFQKYAMVWYRQAPGKERELVAAISSGDSTYADSVKGRFSISRDNAKNTVYLQMNSLKPEDTAVYYCAGDLYDPWWYSYMGEYEYWGQGTQVTVSS
polyreactivity (PSR sort gate): low polyreactivity

QVQLVESGGGLVQAGGSLRLSCAASGSIFIWYAMGWSRQAPGKEREFVAAITYTGTSTYYADSVKGRFTISRDNAKNTVYLQMNSLKPEDTAVYYCAADKSTHPFPSDPGYGYWGQGTQVTVSS
polyreactivity (PSR sort gate): low polyreactivity

QVQLVESGGGLVQAGGSLRLSCAASGRTFPSYTMGWYSQAPGKERELVAAITWTGGSTYYADSVKGRFTISRDNAKNTVYLQMNSLKPEDTAVYYCADYDYWGQGTQVTVSS
polyreactivity (PSR sort gate): low polyreactivity

QVQLVESGGGLVQAGGSLRLSCAASGRIFRWNAMGWYRQAPGKERELVASITGGDITNYADSVKGRFTISRDNAKNTVYLQMNSLKPEDTAVYYCAARGYGRGRPVASYGYDYWGQGTQVTVSS
polyreactivity (PSR sort gate): low polyreactivity

QVQLVESGGGLVQAGGSLRLSCAASGSIFWGYAMGWYRQAPGKERELVATIPNRGGSTYYADSVKARFTISRDNAKNTVYLQMNSLKPEDTAVYYCAVERDYWTKASYYWGRGTQVTVSS
polyreactivity (PSR sort gate): low polyreactivity

QVQLVESGGGLVQAGGSLRLSCAASGFTFRINAMGWYRQAPGKERELVAAITWIGGSTYYADSVKGRFTISRDNAKNTVYLQMNSLKPEDTALYYCAADVYNRWWWRAYDYWGQGTQVTVSS
polyreactivity (PSR sort gate): high polyreactivity

QVQLVESGGGLVHAGGSLRLSCAASGSIFVVYTMGWYRQAPGQERELVAAITQNGGSSTYYADSVKGRFTISRDNAKNTVYLQMNSLKPEDTAVYYCNKDILSPVVRIFKYGYDMDYWGQGTQVTVSS
polyreactivity (PSR sort gate): low polyreactivity

QVQLVESGGGLVQAGGSLRLSCAASGNIFPDYAMGWYRQAPGKERELVAAISSSGSSTYYADSVKGRFTISRDNAKNTVYLQMNSLKKEDTAVYYCATRVYLPTFYIRDTQYYYWGQGTQVTVSS
polyreactivity (PSR sort gate): low polyreactivity

QVQLVESGGGLVQAGGSLRLSCAASGSTLRYNTMGWYRQAPGTERELVAAIRGSGSSTYYADSVKGRFTISRDNAKNTVYLQMNSLKPEDTAVYYCAARPRWYTYTRQEYDYWGQGTQVTVSS
polyreactivity (PSR sort gate): high polyreactivity

QVQLVESGAGLVQAGGSHRLSCAASGRNFYWNARGWYRQAPGKEREFVAAISWSGGSTYADSVKGRFTISRDNAKNTVYLQMNSLKPEDTAVYYCAIRVSRSFRAYDYWGQGTQVTVSS
polyreactivity (PSR sort gate): high polyreactivity

QVQLVESGGGLVQAGGSLRLSCAASGFTFYYYAMGWYRQATGKVRELVAAISARGGSTYYADSVKGRFTISRDNAKNTVYLQMNSLKPEDTAVYYCNAVTGHTSYEYDYWGQGTQVTVSS
polyreactivity (PSR sort gate): high polyreactivity

QVQLVESGGGLVQAGGSLRLSCAASGITFDRYAMGWYRQAPGKERELVAAITSGGRTYYADSVKGRFTISRDNAKNTVYLQMNSLKPEDTAVYYCNATRGQYVGRYYYWGQGTQVTVSS
polyreactivity (PSR sort gate): high polyreactivity

QVQLVESGGGLVQAGGSLRLSCAASGITRGSNAMGWYRQAPGTERELVAAITSGSSTYYADSVKGRFTISRDNAKNTVYLQMNSLKPEDTAVYYCAAEWWDVIAPYEYWGQGTQVTVSS
polyreactivity (PSR sort gate): low polyreactivity

QVQLVESGGGLVQAGGSLRLSCAASGTFSQYAMGWYRQAPGKERELVAAISQGGGSTYYADSVKGRFTISRDNAKNTVYLQMNSLKPEDTAVYYCARSRSYWGIVYGRYDYWGQGTQVTVSS
polyreactivity (PSR sort gate): high polyreactivity

QVQLVESGGGLVQAGGSLRLSCAASGSTFLENAMGWYRQAPGKEREFVAAISKSGGSTSYADSVKGRFTISRDNAKNTVYLQMNSLKPEDTAVYYCATRRSRAYDYWGQGTQVTVSS
polyreactivity (PSR sort gate): high polyreactivity

QDQRVESGGGLVQAGGSLRLSCAASGITLEFYAMGWYRQAPGNERELVARIRSGGSTNYAVSVKGRFTISRDNAKNTVYLQMNSLKPDDTAVYYCAAYLRTDRYGYWGQGTQVTVSS
polyreactivity (PSR sort gate): high polyreactivity

QVQLVESGGGLVQAGGRLRLSCAASGRTFYYYAMGWYRQAPGKERELVAAISWSGGRTYYADSVKGRFTISRDNAKNTVYLQMNSLKPEDTAVYYCNAETAAAQASYDRLDVLLDYWGQGTQVTVSS
polyreactivity (PSR sort gate): low polyreactivity

QVQLVESGGGLVQAGGSLRLSCAASGSTFRYYTMGWYRQAPGKERELVARISWSGGSTYYADSVKGRFTISRDNAKNTVYLQMNSLKPEDTAVYYCNAVLFYFQTRDYWGQGTQVTVSS
polyreactivity (PSR sort gate): high polyreactivity

QVQLVESGGGLVQAGGSLRLSCAASGSTSYSYMGWYRQAPGKERELVAAIDESGGSTYYADSVKGRFTISRDNAKNTVYLQMNSLKPEDTAVYYCNRRYGRSYRWGYGYWGQGTQVTVSS
polyreactivity (PSR sort gate): low polyreactivity

QVQLVESGGGKVQAGGSLRLSCAASGNTFTSNALGWYRQAPGKERELVAAISISGSTNYADSVKGRFTISRDNAKNSVYLQMNSLKPEDTAVYSCAARVGYTAWRRYNYWGQGTQVTVSS
polyreactivity (PSR sort gate): high polyreactivity

QVQLVDSGGGLVQAGGSLRLSCAACGSTFVLYGMGWYRQAPGKQRELVADITGGGSSTYYADSVKGRFTISRDYAKNTVYLQMNSLKPEDTAVYYCNADYYPFYWIEPATPYLGFDYWGQGTQVTVSS
polyreactivity (PSR sort gate): low polyreactivity

QVQLVESGGGLVQAGGSLRLSCAASGSTFTHYALGWYRQAPGKEMELVAAITRRGGSTYYADSVKGRFTISRDYAKNTVYLQMNRLKPEDTAVYYCAARSRYDQEYDYWGQATQVTVSS
polyreactivity (PSR sort gate): high polyreactivity

QVQLVESGGGLVQAGGSLRLSCAASGSTFYIYAIGLYRQAPGKERELVAAINWRTGSTYYADSVMGRFTISRDNAKNTVYLQMNSLKPEDTAVYYWNAYTQHWSYWGQGTQVTVSS
polyreactivity (PSR sort gate): high polyreactivity

QVKLVESGGGLVQAGGSLRLSCAASGSTLRYYGMGWYRQAPGKERELVAAISSGGITNYADSVKGRFTISRDNAKNTVYLQMNSLKPEDTAVYYCAAYYTYTWFGYWGQGTQVTVSS
polyreactivity (PSR sort gate): low polyreactivity

QVQLVESGGGLVQAGGSLRLSCAASGRIFAWNAMGWYRQAPGKERELVARIRVSGGRTYYADSVKGRFTISRDNAKNTVYLQMKSLKPDDTAVYYCNAYLRSGSMDYWGQGTQVTVSS
polyreactivity (PSR sort gate): high polyreactivity

QVQLVESGGGLVQAGGSLRISCAASGSIFGGYAMGWYRQAPGKERELVAAISSGGSTYYADSVKGRFTISRDNAKNTVYLQMNSLKPEDTAVYYCATSTYAYRRNSYYYTRPRFGYWGQGTQVTVSS
polyreactivity (PSR sort gate): high polyreactivity

QVQLVESGGGLVQAGGSLRLSCAASGITFDGNAMGWYRQEPGKERELVAAIDFSGGSTTYADSVKGRFTISRDNAKNTVYLQMNSLKPEDTAVYYCAAVDWYGFLAVEEYYWGQGTQVTVSS
polyreactivity (PSR sort gate): high polyreactivity

QVQLVESGGGLVQAGGSLSLSCAASGYIFAVYAMGWYRQAPGKEREFVAVITWRGGSTYYADSVKGRFTISRDNAKNTVYLQMNSLKPEDTAVYYCAARWHFLTSSRFDYWGQGTQVTVSS
polyreactivity (PSR sort gate): high polyreactivity

QVQLVESGGGLVQAGGSLRLSCAASGTTFFINDLGWYRQAPGKERELVAAISWSGDSTYYPDSVKGRFTISRDNAKNTVYLQMKSLKPEDTAVYYCAADWGFVQPGWSYNYWGQGTQVTVSS
polyreactivity (PSR sort gate): high polyreactivity

QVQLVESGGGLVQAGGSLRLSCAASGSTFKTYTMGWYRQAPGKERELVAGITSGGSTSYADSVKGRFTISRDNAKNTVYLQMNSLKPEDTAVYYCNADAYLVIYFYTVRDYGYDYWGQGTQVTVSS
polyreactivity (PSR sort gate): low polyreactivity

QVQLVESGGGLVQAGGSRRLSCAASGYSLRIYAMGWYRQAPGTEMELVAAISRSGGRTFYADSVKGRFTISRDNAKNTVFLQMNSLKQEDTAVYYCAADPRCYDTGRMDYWGQGTQVTVSS
polyreactivity (PSR sort gate): high polyreactivity

QVQLVESGGGLVQAGGSLRLSCAASGFTFPVYAMGWYRPAPGIEREFVAASTKSGGGTYYADSVKGRCTLSRDNAKKTVYGQMNSLKPEETAVYYCAKASRRFLTLGSDYWGQGTQVTVSS
polyreactivity (PSR sort gate): high polyreactivity

QVQLLESGGGLVQAGGSLRLSCAASGRTFRSYAMGWYRQAPGKERELVAAISRSDGSTYYAESVKVRFTISRDNAKNTVYLQMNSLKPEDTAVYYCARSLYASSYLMYYWGQGTQVTVSS
polyreactivity (PSR sort gate): high polyreactivity

QVQLVESGGGLVQAGGSLSLSCAASGSTFFSYAMGWYRQAPGKEREFVAAITYSSGRTYYADSVKGRFTISRDNAKNTVYLQMNSLKPEDTAVYYCATTGFVWGRGYDYWGQGTQVTVSS
polyreactivity (PSR sort gate): high polyreactivity

QVQLVESGGGLVQAGGSLRLSCAASGGTFNGYALGWYRQAPGKERELVAAITSGGGSTYADSVKGRFTISRDNAKNTVYLQMNSLKPEDTAVYYCNADQWDEWFWDYDYWGQGTQVTVSS
polyreactivity (PSR sort gate): low polyreactivity

QVQLVESGGGLVQAGGSLRLSSAASGSRNAMGWSRQAPGKEREFVAAITWNGGSTYYADSVKGRFTISRDNAKNTVYLQMNSLKPEDTAVYYCNKREVFIYGTTYDYWGQGTQVTVSS
polyreactivity (PSR sort gate): low polyreactivity

QVQLVESGGRLVQAGGSLRLSCAASGSTIVRNGMGWYRQAPGKERELVAAITRGGSTYYADSVKGRFTISRDNAKNTVYLQMNSLKPEDTAVYYCATYDPARSTQGYDYWGQGTQVTVSS
polyreactivity (PSR sort gate): high polyreactivity

QVQLVESGGGLVQAGGSLRLSCAASGSTFPPNAMGWYRQAPGKERELVADSSDSSTYYADSVKGRFTISRDNAKNTVYLQMNSLKPEDNAVYYCAAADAGLRSKSYGQQYDYWGQGTQVTVSS
polyreactivity (PSR sort gate): low polyreactivity

QVQLVESGGGLVQAGGSLRLSCAASGSTLYVYAMGWYRQAPGKERELVAAITRGSRTSYADSVKGRFTISRDNAKNTVYLQMNSLKPEDTAVYYCNADTILWFLPPQKRDYWGQGTQVTVSS
polyreactivity (PSR sort gate): low polyreactivity
